Data published in US20230002478A1.

B1: antibody 339-031 (Fc fusion)
chain: EVQLVESGGGLVQPGGSLRLSCAASGSTFSINAMGWFRQAPGKEREFVAGITSSGGYTNYADSVKGRFTISADNSKNTAYLQMNSLKPEDTAVYYCAADGVPEYSDYASGPVWGQGTLVTVSS
B2: antibody 202-03 (Fc fusion)
chain: EVQLVESGGGLVQPGGSLRLSCAASGFTFSPSWMGWFRQAPGKEREFVATINEYGGRNYADSVKGRFTISADNSKNTAYLQMNSLKPEDTAVYYCARVDRDFDYWGQGTLVTVSS
B3: 6-3 (Fc fusion)
chain: B2 chain

Tests used:
Details in all cases: remark: other sources report otherwise
[1] = target: biotinylated D614G SARS-CoV-2 spike trimer (SARS-CoV-2), P0DTC2; assay: AlphaLISA, inhibition of ACE2-muFc / biotinylated spike complex
[2] = target: biotinylated SARS-CoV-2 spike RBD (Ancestral) (SARS-CoV-2), P0DTC2; assay: as above
[3] = target: biotinylated SARS-CoV-2 spike trimer, Delta (SARS-CoV-2), P0DTC2; assay: as above
[4] = target: S1 RBD-mFc (Acro SPD-05259) (SARS-CoV-2), P0DTC2; assay: flow cytometry: inhibition of S1 RBD-mFc binding to Vero E6 cells (ACE2)
[5] = target: S1 RBD fused to mouse Fc, Beta variant (SARS-CoV-2), P0DTC2; assay: as above
[6] = target: SARS-CoV-2 S RBD (E484K) (SARS-CoV-2), P0DTC2; assay: SPR
[7] = target: SARS-CoV-2 S Trimer (SARS-CoV-2), P0DTC2; assay: SPR
[8] = target: SARS-CoV-2 S RBD (K417N) (SARS-CoV-2), P0DTC2; assay: SPR
[9] = target: SARS-CoV-2 S RBD (N439K) (SARS-CoV-2), P0DTC2; assay: SPR
[10] = target: SARS-CoV-2 S1-Fc (South Africa 178-08) (SARS-CoV-2), P0DTC2; assay: SPR
[11] = target: SARS-CoV-2 S RBD (Y453F) (SARS-CoV-2), P0DTC2; assay: SPR
[12] = target: SARS-CoV-2 S RBD (N501Y) (SARS-CoV-2), P0DTC2; assay: SPR
[13] = target: SARS-CoV-2 S1 (D614G) (SARS-CoV-2), P0DTC2; assay: SPR

Row | Binder | IC50 [1] [nM] | IC50 [2] [nM] | IC50 [3] [nM] | IC50 [4] [nM] | IC50 [5] [nM] | Kd [6] [nM] | Kd [7] [nM] | Kd [8] [nM] | Kd [9] [nM] | Kd [10] [nM] | Kd [11] [nM] | Kd [12] [nM] | Kd [13] [nM]
1 | B1 | 2.1 | 5.6 | 3 | 1.25 | > 100 | – | – | – | – | – | – | – | –
2 | B2 | 4 | 8.3 | – | – | 0.587 | – | – | – | – | – | – | – | –
3 | B3 | – | – | – | – | – | 4.6 | 2.4 | 5.9 | 9.5 | 6.1 | 5.7 | 0.71 | 19
